In US20240261333A1 (published 2024):
Values belong to the binder of their own block, whether it stands above or below them.

What was measured:
[1] = molecular target: T1, CD276, endogenous in A375 melanoma cells (human, UniProt Q5ZPR3 29-534, poly-LacNAc glycosylation added by B3GNT2 (sites not given)); assay: co-IP of FLAG tagged B3GNT2 from A375 lysate, Western blot
T1 construct: whole, on cells; On fixed A375 cells in flow cytometry; In the co-IP it comes from the lysate of these cells; also called B7H3
T1 sequence (looked up): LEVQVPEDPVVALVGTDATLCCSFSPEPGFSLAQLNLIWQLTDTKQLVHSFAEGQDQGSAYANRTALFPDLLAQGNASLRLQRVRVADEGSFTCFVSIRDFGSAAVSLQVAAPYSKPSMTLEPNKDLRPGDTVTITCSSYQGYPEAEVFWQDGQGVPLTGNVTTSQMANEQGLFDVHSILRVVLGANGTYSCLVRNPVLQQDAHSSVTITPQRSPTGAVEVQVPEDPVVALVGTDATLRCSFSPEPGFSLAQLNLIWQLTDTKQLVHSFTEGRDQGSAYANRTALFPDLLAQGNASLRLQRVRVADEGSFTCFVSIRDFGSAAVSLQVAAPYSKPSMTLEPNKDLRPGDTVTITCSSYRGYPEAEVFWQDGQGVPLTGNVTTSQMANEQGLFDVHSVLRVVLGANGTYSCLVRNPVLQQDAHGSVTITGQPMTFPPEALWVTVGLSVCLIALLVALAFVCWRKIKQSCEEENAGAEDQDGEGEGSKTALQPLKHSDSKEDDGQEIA
Method: (§1) Cells were plated in 10-cm cell culture dishes and grown to 60-80% confluency. For each condition, two biological replicates were harvested for co-IP. Cells were washed with PBS and 4 mL of lysis buffer (20 mM HEPES, 1% Triton X-100, 150 mM NaCl, 1 mM EDTA, and 10% glycerol) containing protease inhibitor cocktail was added. Cells were scraped and lysate was incubated at 4° C. under rotary agitation for 1 h. Lysate was centrifuged at 14,000×g for 10 min at 4° C. Supernatant was transferred to a new tube and an aliquot was taken as the input. […] For Western blots, 10 μg/mL Chicken Anti-FLAG (Aves labs ET-DY100) and IgY control (R&D Systems AB-101-C) antibodies were biotinylated (Thermo Fisher Scientific 90407) and added to the respective conditions. Lysates with antibodies were incubated at 4° C. under rotary agitation overnight. For each mL of lysate, 50 μL of Pierce Protein A/G Magnetic Beads (Mass spectrometry; Thermo Fisher Scientific 88803) or Pierce Streptavidin Magnetic Beads (Western blot; Thermo Fisher Scientific 88817) was washed twice with lysis buffer. Lysates with antibodies were added to the beads and incubated at 4° C. under rotary agitation for 4 h. Beads were washed with lysis buffer 3 times and resuspended in lysis buffer for storage.

[2] = molecular target: T2, IFNAR1, endogenous in A375 melanoma cells (human, UniProt P17181 28-557, poly-LacNAc glycosylation added by B3GNT2 (sites not given)); assay: as above
T2 construct: whole, on cells; In the co-IP it comes from the lysate of A375 cells; also called IFNARI
T2 sequence (looked up): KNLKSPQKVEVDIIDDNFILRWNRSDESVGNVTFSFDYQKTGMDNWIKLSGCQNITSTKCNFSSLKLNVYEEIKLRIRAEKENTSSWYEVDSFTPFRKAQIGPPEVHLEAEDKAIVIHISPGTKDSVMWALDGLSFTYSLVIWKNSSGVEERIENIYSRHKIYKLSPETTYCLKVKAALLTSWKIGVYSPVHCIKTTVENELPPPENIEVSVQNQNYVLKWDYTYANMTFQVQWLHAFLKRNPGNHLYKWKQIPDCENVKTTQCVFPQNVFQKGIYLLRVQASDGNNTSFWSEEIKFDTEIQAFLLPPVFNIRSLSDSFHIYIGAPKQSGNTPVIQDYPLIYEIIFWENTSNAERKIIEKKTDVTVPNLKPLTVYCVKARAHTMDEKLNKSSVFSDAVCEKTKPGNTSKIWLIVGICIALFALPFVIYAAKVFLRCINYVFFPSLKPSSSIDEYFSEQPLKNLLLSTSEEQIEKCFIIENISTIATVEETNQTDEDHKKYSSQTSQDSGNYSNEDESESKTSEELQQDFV
Method: as §1

[3] = molecular target: T3, TNFRSF1A, endogenous in A375 melanoma cells (human, UniProt P19438 30-455, poly-LacNAc glycosylation added by B3GNT2 (sites not given)); assay: as above
T3 construct: whole, on cells; In the co-IP it comes from the lysate of A375 cells
T3 sequence (looked up): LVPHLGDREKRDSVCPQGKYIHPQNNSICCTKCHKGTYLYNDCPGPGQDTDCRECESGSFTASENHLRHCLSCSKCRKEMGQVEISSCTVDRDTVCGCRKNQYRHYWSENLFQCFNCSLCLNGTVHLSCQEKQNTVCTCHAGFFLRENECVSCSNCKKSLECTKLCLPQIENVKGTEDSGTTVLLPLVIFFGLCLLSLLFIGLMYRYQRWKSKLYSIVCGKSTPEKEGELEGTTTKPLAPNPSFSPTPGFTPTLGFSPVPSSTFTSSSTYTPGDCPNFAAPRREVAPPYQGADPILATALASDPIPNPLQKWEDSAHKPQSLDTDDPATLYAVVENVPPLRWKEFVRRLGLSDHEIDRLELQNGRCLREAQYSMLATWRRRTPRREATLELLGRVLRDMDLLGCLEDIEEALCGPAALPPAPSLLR
Method: as §1

CD70 = molecular target: T4, CD70 (human, UniProt P32970 1-193); assay: co-IP with anti-FLAG, mass spectrometry; lysate of cells with C-FLAG B3GNT2
T4 construct: also called NP_001243.1
T4 sequence (looked up): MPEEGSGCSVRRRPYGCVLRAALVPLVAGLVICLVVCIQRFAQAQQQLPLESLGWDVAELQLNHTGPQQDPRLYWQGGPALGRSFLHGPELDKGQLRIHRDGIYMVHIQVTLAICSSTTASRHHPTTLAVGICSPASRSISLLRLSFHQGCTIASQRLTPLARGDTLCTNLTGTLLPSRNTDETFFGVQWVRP
Method: as §1
(§2) Magnetic beads were resuspended in 100 mM Tris pH 7.8, reduced, alkylated and digested with trypsin at 37° ° C. overnight. This solution was subjected to solid phase extraction to concentrate the peptides and remove unwanted reagents followed by injection onto a Shimadzu HPLC with fraction collector. Eight fractions were collected and after concentration were injected on a Waters NanoAcquity HPLC equipped with a self-packed Aeris 3 μm C18 analytical column 0.075 mm by 20 cm, (Phenomenex). Peptides were eluted using standard reverse-phase gradients. The effluent from the column was analyzed using a Thermo Orbitrap Elite mass spectrometer (nanospray configuration) operated in a data dependent manner for 54 minutes. […]

MARS = molecular target: T5, MARS (human, UniProt P56192 1-900); assay: as above
T5 construct: also called NP_004981.2
T5 sequence (looked up): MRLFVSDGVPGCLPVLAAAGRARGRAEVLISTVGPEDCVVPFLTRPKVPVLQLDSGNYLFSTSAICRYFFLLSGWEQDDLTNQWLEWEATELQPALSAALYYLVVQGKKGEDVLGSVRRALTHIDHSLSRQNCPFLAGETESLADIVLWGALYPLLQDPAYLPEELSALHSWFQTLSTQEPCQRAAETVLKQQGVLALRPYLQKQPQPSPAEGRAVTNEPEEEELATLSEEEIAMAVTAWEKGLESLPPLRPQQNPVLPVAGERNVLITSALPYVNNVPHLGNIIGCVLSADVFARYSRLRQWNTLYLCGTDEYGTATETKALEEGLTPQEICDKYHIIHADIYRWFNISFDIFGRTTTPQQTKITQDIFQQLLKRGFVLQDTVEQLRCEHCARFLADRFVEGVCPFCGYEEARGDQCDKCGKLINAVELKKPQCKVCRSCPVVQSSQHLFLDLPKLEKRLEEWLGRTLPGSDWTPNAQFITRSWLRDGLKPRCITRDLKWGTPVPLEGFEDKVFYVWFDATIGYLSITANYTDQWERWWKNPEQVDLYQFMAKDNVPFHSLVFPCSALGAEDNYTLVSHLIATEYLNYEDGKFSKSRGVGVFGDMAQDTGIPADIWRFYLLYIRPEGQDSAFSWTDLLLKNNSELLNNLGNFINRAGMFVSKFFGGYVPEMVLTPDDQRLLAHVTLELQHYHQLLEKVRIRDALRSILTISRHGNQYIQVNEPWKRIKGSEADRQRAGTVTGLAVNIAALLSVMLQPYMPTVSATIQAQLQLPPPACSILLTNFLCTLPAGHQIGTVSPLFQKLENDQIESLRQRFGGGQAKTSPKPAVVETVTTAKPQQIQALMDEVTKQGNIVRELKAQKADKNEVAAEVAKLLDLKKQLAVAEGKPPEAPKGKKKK
Method: as §1, §2

PSMD4 = molecular target: T6, PSMD4 (human, UniProt P55036 1-377, limits assumed); assay: as above
T6 construct: also called NP_001317621.1 (+1)
Method: as §1, §2

PPIA = molecular target: T7, PPIA (UniProt P62937 2-165); assay: co-IP with anti-FLAG, mass spectrometry; C-FLAG B3GNT2
T7 construct: Endogenous protein found in the co-IP by mass spectrometry; also called NP_066953.1
Method: as §1
(§3) Magnetic beads were resuspended in 100 mM Tris pH 7.8, reduced, alkylated and digested with trypsin at 37° ° C. overnight. This solution was subjected to solid phase extraction to concentrate the peptides and remove unwanted reagents followed by injection onto a Shimadzu HPLC with fraction collector. Eight fractions were collected and after concentration were injected on a Waters NanoAcquity HPLC equipped with a self-packed Aeris 3 μm C18 analytical column 0.075 mm by 20 cm, (Phenomenex). Peptides were eluted using standard reverse-phase gradients. The effluent from the column was analyzed using a Thermo Orbitrap Elite mass spectrometer (nanospray configuration) operated in a data dependent manner for 54 minutes. The resulting fragmentation spectra were correlated against the known database using Proteome Discover 1.4 (Thermo Fisher Scientific).

ENO1 = molecular target: T8, ENO1 (UniProt P06733 2-434); assay: as above
T8 construct: Endogenous protein found in the co-IP by mass spectrometry; also called NP_001419.1
Method: as §1, §3

TRIM21 = molecular target: T9, TRIM21 (UniProt P19474 1-475); assay: as above
T9 construct: Endogenous protein found in the co-IP by mass spectrometry; also called NP_003132.2
Method: as §1, §3

RPS11 = RPS11 (UniProt P62280 2-158); assay: as above
Method: as §1, §3

S100A9 = molecular target: T10, S100A9 (UniProt P06702 1-114); assay: as above
T10 construct: Protein found in the co-IP by mass spectrometry; also called NP_002956.1
T10 sequence (looked up): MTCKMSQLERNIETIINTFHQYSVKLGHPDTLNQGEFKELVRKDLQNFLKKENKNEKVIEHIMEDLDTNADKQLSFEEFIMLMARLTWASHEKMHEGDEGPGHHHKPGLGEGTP
Method: as §1, §3

S100A8 = molecular target: T11, S100A8 (UniProt P05109 1-93); assay: as above
T11 construct: Protein found in the co-IP by mass spectrometry; also called NP_002955.2
T11 sequence (looked up): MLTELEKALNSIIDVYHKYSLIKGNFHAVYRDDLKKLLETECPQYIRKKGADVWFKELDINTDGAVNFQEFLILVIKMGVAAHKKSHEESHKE
Method: as §1, §3

SPRR2E = molecular target: T12, SPRR2E (UniProt P22531 1-72); assay: as above
T12 construct: Protein found in the co-IP by mass spectrometry; also called NP_001019380.2
T12 sequence (looked up): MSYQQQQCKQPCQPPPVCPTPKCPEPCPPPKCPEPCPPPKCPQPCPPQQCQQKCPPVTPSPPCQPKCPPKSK
Method: as §1, §3

RPS17 = RPS17 (UniProt P08708 2-135); assay: as above
Method: as §1, §3

AHNAK = molecular target: T13, AHNAK (UniProt Q09666 1-5890); assay: as above
T13 construct: Endogenous protein found in the co-IP by mass spectrometry; also called NP_001611.1
Method: as §1, §3

T6 sequence (P55036 whole entry): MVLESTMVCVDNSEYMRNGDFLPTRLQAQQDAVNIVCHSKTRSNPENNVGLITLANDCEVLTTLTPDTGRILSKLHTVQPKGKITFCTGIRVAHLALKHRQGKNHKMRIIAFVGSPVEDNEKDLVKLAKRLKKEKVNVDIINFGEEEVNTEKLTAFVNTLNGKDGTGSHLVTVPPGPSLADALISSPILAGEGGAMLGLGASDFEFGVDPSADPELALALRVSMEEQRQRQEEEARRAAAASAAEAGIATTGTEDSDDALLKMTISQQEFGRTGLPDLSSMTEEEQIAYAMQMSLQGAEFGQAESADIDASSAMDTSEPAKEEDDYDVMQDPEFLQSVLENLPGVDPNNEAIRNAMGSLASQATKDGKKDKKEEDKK
T7 sequence (P62937 2-165 limits assumed): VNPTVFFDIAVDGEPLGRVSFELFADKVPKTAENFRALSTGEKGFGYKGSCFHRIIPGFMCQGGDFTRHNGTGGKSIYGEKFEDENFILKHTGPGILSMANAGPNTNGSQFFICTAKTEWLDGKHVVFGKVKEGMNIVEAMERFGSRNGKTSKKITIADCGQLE
T9 sequence (P19474 whole entry): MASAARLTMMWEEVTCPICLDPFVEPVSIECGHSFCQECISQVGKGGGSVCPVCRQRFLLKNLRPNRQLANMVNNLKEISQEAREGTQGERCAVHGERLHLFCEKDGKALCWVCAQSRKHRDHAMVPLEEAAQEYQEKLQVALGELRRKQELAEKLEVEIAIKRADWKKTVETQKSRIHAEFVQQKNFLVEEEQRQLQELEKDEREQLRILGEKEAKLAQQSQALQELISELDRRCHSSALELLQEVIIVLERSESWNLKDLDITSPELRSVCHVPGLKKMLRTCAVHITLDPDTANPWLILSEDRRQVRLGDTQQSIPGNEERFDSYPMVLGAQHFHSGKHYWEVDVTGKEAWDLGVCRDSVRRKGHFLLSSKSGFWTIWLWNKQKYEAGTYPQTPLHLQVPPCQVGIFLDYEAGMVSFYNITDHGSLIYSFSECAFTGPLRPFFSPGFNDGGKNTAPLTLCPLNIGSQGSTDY
T8 sequence (P06733 2-434 limits assumed): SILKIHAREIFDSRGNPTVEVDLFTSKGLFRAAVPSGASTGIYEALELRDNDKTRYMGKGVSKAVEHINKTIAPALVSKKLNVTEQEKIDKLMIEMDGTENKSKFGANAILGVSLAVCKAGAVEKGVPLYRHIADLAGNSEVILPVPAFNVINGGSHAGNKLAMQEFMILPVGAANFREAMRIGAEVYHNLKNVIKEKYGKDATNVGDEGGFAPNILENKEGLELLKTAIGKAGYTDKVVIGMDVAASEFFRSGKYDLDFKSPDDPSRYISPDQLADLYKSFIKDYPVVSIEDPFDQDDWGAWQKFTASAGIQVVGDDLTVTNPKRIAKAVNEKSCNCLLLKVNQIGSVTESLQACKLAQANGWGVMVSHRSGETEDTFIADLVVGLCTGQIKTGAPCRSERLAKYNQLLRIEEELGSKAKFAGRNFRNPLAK

binding result [1]: binds
binding result [2]: binds
binding result [3]: binds
B1: FLAG tagged B3GNT2 (N- or C-terminal FLAG tag) (enzyme, human, UniProt Q9NY97 1-397, looked up)
chain: MSVGRRRIKLLGILMMANVFIYFIMEVSKSSSQEKNGKGEVIIPKEKFWKISTPPEAYWNREQEKLNRQYNPILSMLTNQTGEAGRLSNISHLNYCEPDLRVTSVVTGFNNLPDRFKDFLLYLRCRNYSLLIDQPDKCAKKPFLLLAIKSLTPHFARRQAIRESWGQESNAGNQTVVRVFLLGQTPPEDNHPDLSDMLKFESEKHQDILMWNYRDTFFNLSLKEVLFLRWVSTSCPDTEFVFKGDDDVFVNTHHILNYLNSLSKTKAKDLFIGDVIHNAGPHRDKKLKYYIPEVVYSGLYPPYAGGGGFLYSGHLALRLYHITDQVHLYPIDDVYTGMCLQKLGLVPEKHKGFRTFDIEEKNKNNICSYVDLMLVHSRKPQEMIDIWSQLQSAHLKC
notes: The text speaks of the co-IP of B3GNT2 without separating the N-FLAG and C-FLAG constructs, so both are held as one molecule; also called N-FLAG B3GNT2; C-FLAG B3GNT2; not shown: FLAG tag at the N- or the C-terminus

co-IP mass spectrometry count (CD70): 2
co-IP mass spectrometry count (MARS): 0
co-IP mass spectrometry count (PSMD4): 0
B2: C-terminal FLAG tagged B3GNT2 (enzyme, human, UniProt Q9NY97 1-397, looked up)
chain: B1 chain
notes: Bait of the co-IP; pulled down with mouse anti-FLAG (Millipore Sigma F3165) from cell lysate; also called C-FLAG B3GNT2; C-term flag; not shown: C-terminal FLAG tag

co-IP mass spectrometry count (PPIA): 0
co-IP mass spectrometry count (ENO1): 4
co-IP mass spectrometry count (TRIM21): 0
co-IP mass spectrometry count (RPS11): 18
co-IP mass spectrometry count (S100A9): 9
co-IP mass spectrometry count (S100A8): 3
co-IP mass spectrometry count (SPRR2E): 0
co-IP mass spectrometry count (RPS17): 10
co-IP mass spectrometry count (AHNAK): 2
B3: C-terminal FLAG tagged B3GNT2 (enzyme, human, UniProt Q9NY97 1-397, looked up)
chain: B1 chain
notes: FLAG-tagged ORF overexpressed in cells; bait of the anti-FLAG co-IP; also called C-FLAG B3GNT2; C-term flag; not shown: FLAG tag at the C-terminus
